Test results as given in patent publication US20200148787A1 (KYMAB, published 2020).
Values belong to the binder of their own block, whether it stands above or below them.

How the values were obtained:
Human Factor X (FX) = Human Factor X (FX) (human, UniProt P00742 41-179; P00742 183-488, limits assumed); experiment: SPR Biacore 8K, IgG captured on anti-human IgG Fc, FX analyte, 25 C, 1:1 fit
Description: (§1) Amine coupling kit (BioRad) was used to activate the surface of the chip. […] The immobilisation run was performed at 25° C. using HBS-EP (10 mM HEPES pH 7.4, 150 mM NaCl, 3 mM EDTA, 0.05% Polysorbate 20 pH 7.6) as immobilisation running buffer.
The run was performed at 25° C. using neutral pH (pH 7.4) HBS-P 1× (0.01 M HEPES pH 7.4, 0.15 M NaCl, 0.05% Polysorbate 20 pH 7.6)+CaCl₂) 2.5 mM as running buffer.

Human factor IX (FIX) = molecular target: T1, Human factor IX (FIX) (human, UniProt P00740 47-461, 12 glutamic acid residues in the GLA domain post-translationally gamma-carboxylated (general description)); experiment: SPR Biacore 8K, IgG captured on anti-human IgG Fc, FIX analyte, 25 C, 1:1 fit
T1 construct: mature; Bought reagent, used as SPR analyte
Description: as §1, with “An anti-human IgG Fc antibody was immobilised on CM4 chip (GE Healthcare catalog number BR100534) according to manufacturer's instructions. Amine” for “Amine”
Purified monospecific antibodies (referred to as ligand) from Example 13 were captured on the anti-human IgG Fc CM4 surface at approximately 2 μg/ml. The ligands were injected for 60 sec at 10 μl/min in all the active channels of all 8 flow channels. The run was performed at 25° C. using neutral pH (pH 7.4) HBS-P 1× (0.01 M HEPES pH 7.4, 0.15 M NaCl, 0.05% Polysorbate 20 pH 7.6)+CaCl₂) 2.5 mM as running buffer. Human factor IX (FIX) (Enzyme Research Laboratories cat n. HFIX 47064) was reconstituted at 1 mg/ml (MW ˜55 KDa) in the running buffer and used as analyte. […] Three injections of 10 mM glycine pH 1.5 for 60 sec at 10 μl/min were used for the regeneration phase.
The association and dissociation data of the interaction were fitted using biomolecular reaction model (1:1 Langmuir model). The values for association rate constant (kₒₙ), dissociation rate constant (koff) and dissociation constant (KD) were calculated from the binding data by BIAevaluation software.

Sequence of Human Factor X (FX) (P00742 41-179 limits assumed, form in doubt, chain 1 of 2): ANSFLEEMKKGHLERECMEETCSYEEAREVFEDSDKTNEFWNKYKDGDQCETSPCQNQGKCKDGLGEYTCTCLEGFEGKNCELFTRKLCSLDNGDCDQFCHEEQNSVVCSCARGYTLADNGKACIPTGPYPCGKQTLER
Sequence of Human Factor X (FX) (P00742 183-488 limits assumed, form in doubt, chain 2 of 2): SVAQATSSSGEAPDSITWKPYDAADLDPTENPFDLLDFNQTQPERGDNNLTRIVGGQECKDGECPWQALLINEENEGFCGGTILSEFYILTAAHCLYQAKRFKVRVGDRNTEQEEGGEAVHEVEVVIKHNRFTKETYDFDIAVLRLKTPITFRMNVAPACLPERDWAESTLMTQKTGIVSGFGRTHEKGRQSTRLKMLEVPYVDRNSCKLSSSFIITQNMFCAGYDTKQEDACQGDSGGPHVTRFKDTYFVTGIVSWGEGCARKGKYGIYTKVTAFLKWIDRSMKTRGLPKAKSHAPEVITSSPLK

Kd (Human Factor X (FX)): 3.57 nM
B1: T25H_IgG4PE + T25L_IgK (antibody, V domains shown)
VH: QVQLQESGPGLVKPSETLSLTCTVSGGSISSGIYYWSWIRQHPGKGLEWIGYINNSGNTYYNPSLKGRVNISVDTSKKQFSLKLSSVTDADTAVYYCARGGSGDYWGQGTLVTVSS
VL: EIVLTQSPATLSLSPGERATLSCRTSQSINNYLAWFQQKPGQAPRLLIYDASNRAPGIPARFSGSGSGTDFTLTISSLEPEDFVVYFCQQRNNWPPTFGQGTKVEIKR
notes: Monospecific IgG4PE, kappa; Kappa junction as noted for T14

Kd (Human factor IX (FIX)): 428 nM | koff (Human factor IX (FIX)): 0.031 s⁻¹ | kon (Human factor IX (FIX)): 72300 M⁻¹ s⁻¹
B2: N225H_IgG4PE + N128L_IgL (antibody, V domains shown)
VH: EVQLVESGGGFVQPGGSLRLSCAVSGFTFNSYWMSWVRQAPGKGLEWVANINQDGSEKFYVASVKGRFTISRDNAKKSVYLQMNSLRAEDTAVYYCAREGYSSSSYYGMDVWGQGTTVTVSS
VL: SYVLTQPPSVSVAPGETARITCGGDNIGRKSVYWYQQKSGQAPVLVIYYDSDRPSGIPERFSGSNSGNTATLTISRVEAGDEADYYCQVWDGSSDHWVFGGGTKLTVLG
notes: Monospecific IgG4PE with lambda light chain
